Laboratory results from article PMC3553496 (Science signaling, 2011).
One block for each binder: values may come before it.

Experiments:
Test in all cases: peptide or protein array
[1] = molecular target: T1, U1 small nuclear ribonucleoprotein C peptide (18-mer) (human)
T1 peptide: GAMIPPPPSLPGPPRPGM

[2] = molecular target: T2, Tight junction protein ZO-2 peptide (18-mer) (human)
T2 peptide: FGRSILKPSTPIPPQEGE

[3] = molecular target: T3, Serine-threonine protein kinase WNK1 peptide (18-mer) (human)
T3 peptide: NATALELPGLPLSLPQPS

[4] = molecular target: T4, SET and MYND domain–containing protein 3 peptide (18-mer) (human)
T4 peptide: NGLRAVTPLRPGELLFRS

[5] = molecular target: T5, EGFR kinase substrate 8 peptide (18-mer) (human)
T5 peptide: PKEQFIPPYVPRFRNGWE

[6] = molecular target: T6, Coiled-coil domain–containing protein KIAA1826 peptide (18-mer) (human)
T6 peptide: SRRENELPDFPHIDEFFT

[7] = molecular target: T7, UPF0027 protein C22orf28 peptide (18-mer) (human)
T7 peptide: GSTRAFPPHHPLIAVDYQ

[8] = molecular target: T8, Diaphanous homolog 1 peptide (18-mer) (human)
T8 peptide: LPGGTAIPPPPPLPGSAR

[9] = molecular target: T9, DAZ-associated protein 1 peptide (18-mer) (human)
T9 peptide: QFSFGYGPPPPPPDQFAP

[10] = molecular target: T10, Splicing factor 1 peptide (18-mer) (human)
T10 peptide: GMPPFGMPPAPPPPPPQN

[11] = molecular target: T11, Gephyrin peptide (18-mer) (human)
T11 peptide: FGRVFMKPGLPTTFATLD

[12] = molecular target: T12, Glutamate–cysteine ligase catalytic peptide (18-mer) (human)
T12 peptide: WQTMRFKPPPPNSDIGWR

[13] = molecular target: T13, YLP motif–containing protein 1 peptide (18-mer) (human)
T13 peptide: HHLPPPPLPPPPVMPGGG

[14] = molecular target: T14, Dishevelled, dsh homolog 3 peptide (18-mer) (human)
T14 peptide: MAFPRPRPWGPQEPLRAA

[15] = molecular target: T15, Adenylyl cyclase–associated protein 1 peptide (18-mer) (human)
T15 peptide: PPPPPPCPPPPPVSTISC

[16] = molecular target: T16, Tyrosine protein kinase ABL1 peptide (18-mer) (human)
T16 peptide: KKKKKTAPTPPKRSSSFR

[17] = molecular target: T17, Statherin peptide (18-mer) (human)
T17 peptide: RFGYGYGPYQPVPEQPLY

[18] = molecular target: T18, Proline-rich protein 4 peptide (18-mer) (human)
T18 peptide: GHRQLSLPRFPSVSLQEA

[19] = molecular target: T19, Focal adhesion kinase 1 peptide (18-mer) (human)
T19 peptide: DPAAPPKKPPRPGAPGHL

[20] = molecular target: T20, NEDD9-interacting protein with calponin homology and LIM domains peptide (18-mer) (human)
T20 peptide: DPEMEPPPKPPRSCSALA

[21] = molecular target: T21, Rab11 family interacting protein 5 peptide (18-mer) (human)
T21 peptide: RIMETSPTLLQIPPGPPK

[22] = molecular target: T22, Serine-threonine protein kinase N3 peptide (18-mer) (human)
T22 peptide: EMTPPPKPPRLYLPQEPT

[23] = molecular target: T23, Ankyrin repeat and SAM domain–containing protein 1A peptide (18-mer) (human)
T23 peptide: DRPYEEPPQKPPRFSQLR

B1: GST-tagged ARHGAP12 SH3 domain (domain or fragment, human, UniProt Q8IWW6 15-73, looked up)
chain: VYIEVEYDYEYEAKDRKIVIKQGERYILVKKTNDDWWQVKPDENSKAFYVPAQYVKEVT
- relative binding strength (% of the strongest interaction of this SH3 domain) [1]: 100%
- relative binding strength (% of the strongest interaction of this SH3 domain) [2]: 93%
- relative binding strength (% of the strongest interaction of this SH3 domain) [3]: 52%

B2: GST-tagged ARHGAP9 SH3 domain (domain or fragment, human, UniProt Q9BRR9 25-87, looked up)
chain: SQLCALYAFTYTGADGQQVSLAEGDRFLLLRKTNSDWWLARRLEAPSTSRPIFVPAAYMIEES
- relative binding strength (% of the strongest interaction of this SH3 domain) [4]: 100%
- relative binding strength (% of the strongest interaction of this SH3 domain) [5]: 24%
- relative binding strength (% of the strongest interaction of this SH3 domain) [6]: 70%
- relative binding strength (% of the strongest interaction of this SH3 domain) [7]: 13%

B3: GST-tagged ARHGAP4 SH3 domain (domain or fragment)
chain: not shown
- relative binding strength (% of the strongest interaction of this SH3 domain) [8]: 100%
- relative binding strength (% of the strongest interaction of this SH3 domain) [9]: 18%
- relative binding strength (% of the strongest interaction of this SH3 domain) [10]: 7%

B4: GST-tagged SRGAP2 SH3 domain (domain or fragment)
chain: not shown
- relative binding strength (% of the strongest interaction of this SH3 domain) [11]: 55%
- relative binding strength (% of the strongest interaction of this SH3 domain) [12]: 18%
- relative binding strength (% of the strongest interaction of this SH3 domain) [13]: 100%
- relative binding strength (% of the strongest interaction of this SH3 domain) [14]: 9%

Further lines, results first:

- relative binding strength (% of the strongest interaction of this SH3 domain) [15]: 10%
- relative binding strength (% of the strongest interaction of this SH3 domain) [16]: 20%
- relative binding strength (% of the strongest interaction of this SH3 domain) [17]: 28%
- relative binding strength (% of the strongest interaction of this SH3 domain) [18]: 100%
B5: GST-tagged SNX26 SH3 domain (domain or fragment, human, UniProt O14559 189-247, looked up)
chain: AAAHVIKRYTAQAPDELSFEVGDIVSVIDMPPTEDRSWWRGKRGFQVGFFPSECVELFT

- relative binding strength (% of the strongest interaction of this SH3 domain) [19]: 91%
- relative binding strength (% of the strongest interaction of this SH3 domain) [20]: 64%
- relative binding strength (% of the strongest interaction of this SH3 domain) [21]: 6%
- relative binding strength (% of the strongest interaction of this SH3 domain) [22]: 100%
- relative binding strength (% of the strongest interaction of this SH3 domain) [23]: 27%
B6: GST-tagged ARHGAP26 SH3 domain (domain or fragment, human, UniProt Q9UNA1 759-814, looked up)
chain: RKAKALYACKAEHDSELSFTAGTVFDNVHPSQEPGWLEGTLNGKTGLIPENYVEFL
